# Reference: US20230265151A1, “GIP/GLP1 CO-AGONIST COMPOUNDS” (priority 2020, published 2023)
# *1 amine or outer side, *2 acyl side, *3 side chain or, on linkers, in order; H or OH if unused. Where no end group is shown, it is not given here. Side-chain parts run from the residue outwards. [ ]: non-standard residue; d: D form. The star is where a group is joined. Decanoyl(10-(4-HOOC-PhO)) = O=C(O)c1ccc(OCCCCCCCCCC(=O)*)cc1; αMePhe(2-F) = C[C@](N)(Cc1ccccc1F)C(=O)O; γGlu = O=C(O)[C@H](CCC(=O)[*:2])N[*:1]; C14 diacid = O=C(O)CCCCCCCCCCCCC(=O)*; αMeY = C[C@](N)(Cc1ccc(O)cc1)C(=O)O; αMeL = CC(C)C[C@](C)(N)C(=O)O; Orn = NCCC[C@H](N)C(=O)O; AEEA = NCCOCCOCC(=O)O; Aib = CC(C)(N)C(=O)O
# Experiments:
# Experiment in all cases: cell-based or functional assay
# human GIP receptor [1] = molecular target: T1, human GIP receptor (human, UniProt P48546 22-466)
# T1 sequence (looked up): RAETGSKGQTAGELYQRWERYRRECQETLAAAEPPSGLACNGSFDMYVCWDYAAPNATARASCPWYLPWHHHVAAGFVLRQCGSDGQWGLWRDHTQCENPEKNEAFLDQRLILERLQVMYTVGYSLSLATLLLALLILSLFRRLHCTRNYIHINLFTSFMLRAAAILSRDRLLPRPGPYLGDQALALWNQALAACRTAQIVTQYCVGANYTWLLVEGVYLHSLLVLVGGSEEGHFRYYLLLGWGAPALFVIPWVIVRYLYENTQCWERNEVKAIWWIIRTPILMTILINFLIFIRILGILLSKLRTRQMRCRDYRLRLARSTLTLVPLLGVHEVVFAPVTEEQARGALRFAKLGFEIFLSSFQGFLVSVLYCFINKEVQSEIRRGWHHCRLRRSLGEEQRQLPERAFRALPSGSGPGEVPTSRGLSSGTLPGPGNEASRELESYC
# human glucagon receptor [2] = molecular target: human glucagon receptor (human, UniProt P47871 26-477)
# Target sequence in this assay (P47871 26-477): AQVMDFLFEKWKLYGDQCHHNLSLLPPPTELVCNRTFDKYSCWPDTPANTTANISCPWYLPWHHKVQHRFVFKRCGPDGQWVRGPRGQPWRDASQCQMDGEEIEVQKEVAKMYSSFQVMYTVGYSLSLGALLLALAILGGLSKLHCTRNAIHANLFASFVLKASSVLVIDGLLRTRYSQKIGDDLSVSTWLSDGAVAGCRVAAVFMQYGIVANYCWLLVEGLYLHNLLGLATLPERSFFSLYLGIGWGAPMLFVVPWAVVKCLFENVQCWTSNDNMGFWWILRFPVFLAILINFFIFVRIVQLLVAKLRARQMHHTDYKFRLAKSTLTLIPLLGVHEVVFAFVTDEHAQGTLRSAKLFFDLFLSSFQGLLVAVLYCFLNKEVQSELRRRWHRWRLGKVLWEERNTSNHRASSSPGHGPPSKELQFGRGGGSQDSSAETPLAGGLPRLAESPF
# human GLP-1 receptor [3] = molecular target: human GLP-1 receptor (human, UniProt P43220 24-463)
# [4] = molecular target: human glucagon receptor (human) (UniProt P47871)
# hGLP-1R = hGLP-1R (Homo sapiens, UniProt P43220)
# [5] = molecular target: T2, human GIP receptor (human) (UniProt P48546)
# T2 sequence (looked up): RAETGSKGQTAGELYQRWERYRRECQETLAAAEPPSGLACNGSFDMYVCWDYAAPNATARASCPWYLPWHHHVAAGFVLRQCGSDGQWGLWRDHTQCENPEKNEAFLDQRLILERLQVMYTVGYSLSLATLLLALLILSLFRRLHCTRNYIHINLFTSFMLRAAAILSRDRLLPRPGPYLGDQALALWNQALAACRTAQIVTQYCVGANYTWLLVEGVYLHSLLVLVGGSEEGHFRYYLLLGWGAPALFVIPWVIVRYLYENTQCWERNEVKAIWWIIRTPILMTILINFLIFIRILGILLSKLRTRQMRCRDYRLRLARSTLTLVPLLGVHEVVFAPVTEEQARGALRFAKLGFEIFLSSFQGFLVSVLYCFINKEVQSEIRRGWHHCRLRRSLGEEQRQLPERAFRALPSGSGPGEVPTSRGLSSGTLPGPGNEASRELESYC
# human GLP-1 receptor [6] = molecular target: human GLP-1 receptor (human, UniProt P43220 24-463); remark: listed apart in the source
# human glucagon receptor [7] = molecular target: human glucagon receptor (human, UniProt P47871 26-477); remark: listed apart in the source
# human GIP receptor [8] = molecular target: T3, human GIP receptor (human, UniProt P48546 22-466); remark: listed apart in the source
# T3 sequence (looked up): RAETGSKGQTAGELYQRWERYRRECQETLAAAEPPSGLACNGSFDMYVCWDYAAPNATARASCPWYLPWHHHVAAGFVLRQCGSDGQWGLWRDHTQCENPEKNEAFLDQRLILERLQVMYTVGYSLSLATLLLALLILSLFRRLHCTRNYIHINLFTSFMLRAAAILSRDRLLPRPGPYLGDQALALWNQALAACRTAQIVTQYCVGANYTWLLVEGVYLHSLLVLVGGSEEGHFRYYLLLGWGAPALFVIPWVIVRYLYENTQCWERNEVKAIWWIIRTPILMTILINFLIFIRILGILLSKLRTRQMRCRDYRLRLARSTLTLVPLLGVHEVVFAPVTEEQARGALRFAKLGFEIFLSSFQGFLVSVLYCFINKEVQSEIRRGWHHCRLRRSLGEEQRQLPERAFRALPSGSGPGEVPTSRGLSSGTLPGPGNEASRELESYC
Binder,cAMP EC50 (1.0% HSA) (human GIP receptor [1]) [nM],cAMP Emax (1.0% HSA) (human GIP receptor [1]) [%],cAMP EC50 (1.0% HSA) (human glucagon receptor [2]) [nM],cAMP EC50 (1.0% HSA) (human GLP-1 receptor [3]) [nM],cAMP Emax (1.0% HSA) (human GLP-1 receptor [3]) [%],cAMP EC50 [4] [nM],cAMP EC50 (hGLP-1R) [nM],cAMP Emax (hGLP-1R) [%],cAMP EC50 [5] [nM],cAMP Emax [5] [%],cAMP EC50 (1.0% HSA) (human GLP-1 receptor [6]) [nM],cAMP Emax (1.0% HSA) (human GLP-1 receptor [6]) [%],cAMP EC50 (1.0% HSA) (human glucagon receptor [7]) [nM],cAMP EC50 (1.0% HSA) (human GIP receptor [8]) [nM],cAMP Emax (1.0% HSA) (human GIP receptor [8]) [%]
YXEGTXTSDYXIXLDXQAQXEFIKXLIKGGPSSGAPPPS (Y-Aib-EGT-αMeF(2F)-TSDY-Aib-I-αMeL-LD-Orn-QAQ-Aib-EFIK((2-[2-(2-Amino-ethoxy)-ethoxy]-acetyl)2-(γ-Glu)-CO-(CH2)12-CO2H)-αMeY-LIK((2-[2-(2-Amino-ethoxy)-ethoxy]-acetyl)2-(γ-Glu)-CO-(CH2)12-CO2H)GGPSSGAPPPS-NH2) [Example 412],1.57,87.5,> 9950,18.3,–,–,–,–,–,–,–,–,–,–,–
YXEGTXTSDXXIXLDXIAQXXFIKXLIKGGPSSGAPPPS (Y-Aib-EGT-αMeF(2F)-TSD-4Pal-Aib-I-αMeL-LD-Orn-IAQ-Aib-Orn-FIK((2-[2-(2-Amino-ethoxy)-ethoxy]-acetyl)2-(γ-Glu)-(10-(4-carboxyphenoxy)decanoyl))-αMeY-LIK((2-[2-(2-Amino-ethoxy)-ethoxy]-acetyl)2-(γ-Glu)-(10-(4-carboxyphenoxy)decanoyl))GGPSSGAPPPS-NH2) [Example 354],0.857,67.5,> 9950,7.25,95.9,–,–,–,–,–,–,–,–,–,–
YXEGTXTSDXXIXLDXIAQXKFIXXLIKGGPSSGAPPPS (Y-Aib-EGT-αMeF(2F)-TSD-4Pal-Aib-I-αMeL-LD-Orn-IAQ-Aib-K((2-[2-(2-Amino-ethoxy)-ethoxy]-acetyl)-(γ-Glu)-CO-(CH2)12-CO2H)FI-(D-Glu)-αMeY-LIK((2-[2-(2-Amino-ethoxy)-ethoxy]-acetyl)-(γ-Glu)-CO-(CH2)12-CO2H)GGPSSGAPPPS-NH2) [Example 340],–,–,–,–,–,> 9950,0.409,105,0.0206,95.2,122,112,> 9950,9.91,87.9
YXEGTXTSDYXIXLDXQAQXEFIKXLIKGGPSSGAPPPS (Y-Aib-EGT-αMeF(2F)-TSDY-Aib-I-αMeL-LD-Orn-QAQ-Aib-EFIK((2-[2-(2-Amino-ethoxy)-ethoxy]-acetyl)2-(γ-Glu)-(10-(4-carboxyphenoxy)decanoyl))-αMeY-LIK((2-[2-(2-Amino-ethoxy)-ethoxy]-acetyl)2-(γ-Glu)-(10-(4-carboxyphenoxy)decanoyl))GGPSSGAPPPS-NH2) [Example 402],1.11,84.5,> 9950,13.5,–,–,–,–,–,–,–,–,–,–,–
YXEGTXTSDYXIXLDXIAQXXFIKXLIKGGPSSGAPPPS (Y-Aib-EGT-αMeF(2F)-TSDY-Aib-I-αMeL-LD-Orn-IAQ-Aib-Orn-FIK((2-[2-(2-Amino-ethoxy)-ethoxy]-acetyl)2-(γ-Glu)-(10-(4-carboxyphenoxy)decanoyl))-αMeY-LIK((2-[2-(2-Amino-ethoxy)-ethoxy]-acetyl)2-(γ-Glu)-(10-(4-carboxyphenoxy)decanoyl))GGPSSGAPPPS-NH2) [Example 355],1.81,–,> 9950,11.3,109,–,–,–,–,–,–,–,–,–,–
YXEGTXTSDYXIXLDXIAQXEFIKXLIKGGPSSGAPPPS (Y-Aib-EGT-αMeF(2F)-TSDY-Aib-I-αMeL-LD-Orn-IAQ-Aib-EFIK((2-[2-(2-Amino-ethoxy)-ethoxy]-acetyl)-(γ-Glu)-(10-(4-carboxyphenoxy)decanoyl))-αMeY-LIK((2-[2-(2-Amino-ethoxy)-ethoxy]-acetyl)-(γ-Glu)-(10-(4-carboxyphenoxy)decanoyl))GGPSSGAPPPS-NH2) [Example 375],4.68,–,> 9950,56.1,–,–,–,–,–,–,–,–,–,–,–
YXEGTXTSDXXIXLDXKAQXEFIXXLIKGGPSSGAPPPS (Y-Aib-EGT-αMeF(2F)-TSD-4Pal-Aib-I-αMeL-LD-Orn-K((2-[2-(2-Amino-ethoxy)-ethoxy]-acetyl)-(γ-Glu)-CO-(CH2)12-CO2H)AQ-Aib-EFI-(D-Glu)-αMeY-LIK((2-[2-(2-Amino-ethoxy)-ethoxy]-acetyl)-(γ-Glu)-CO-(CH2)12-CO2H)GGPSSGAPPPS-NH2) [Example 337],–,–,–,–,–,> 10100,0.444,107,0.0151,103,53.6,–,> 10100,2.65,–
Y[Aib]EGT[αMePhe(2-F)]TSDV[Aib]I[αMeL]LD[Orn]IAQ[Aib][Orn]FIK([AEEA-AEEA-γGlu-Decanoyl(10-(4-HOOC-PhO))])[αMeY]LIK([AEEA-AEEA-γGlu-Decanoyl(10-(4-HOOC-PhO))])GGPSSGAPPPS-NH2 [Example 356],2.47,82.7,> 9950,23.4,–,–,–,–,–,–,–,–,–,–,–
Y[Aib]EGT[αMePhe(2-F)]TSDV[Aib]I[αMeL]LD[Orn]IAQ[Aib]K([AEEA-AEEA-γGlu-Decanoyl(10-(4-HOOC-PhO))])FI[dE][αMeY]LIK([AEEA-AEEA-γGlu-Decanoyl(10-(4-HOOC-PhO))])GGPSSGAPPPS-NH2 [Example 330],–,–,–,–,–,> 9950,0.477,103,0.0185,112,85.2,85,> 9950,6.26,103
Y[Aib]EGT[αMePhe(2-F)]TSDV[Aib]I[αMeL]LD[Orn]QAQ[Aib]EFIK([AEEA-AEEA-γGlu-C14 diacid])[αMeY]LIK([AEEA-AEEA-γGlu-C14 diacid])GGPSSGAPPPS-NH2 (N-terminus assumed; SMILES CC[C@H](C)[C@H](NC(=O)[C@H](CC(C)C)NC(=O)[C@](C)(Cc1ccc(O)cc1)NC(=O)[C@H](CCCCNC(=O)COCCOCCNC(=O)COCCOCCNC(=O)CC[C@H](NC(=O)CCCCCCCCCCCCC(=O)O)C(=O)O)NC(=O)[C@@H](NC(=O)[C@H](Cc1ccccc1)NC(=O)[C@H](CCC(=O)O)NC(=O)C(C)(C)NC(=O)[C@H](CCC(N)=O)NC(=O)[C@H](C)NC(=O)[C@H](CCC(N)=O)NC(=O)[C@H](CCCN)NC(=O)[C@H](CC(=O)O)NC(=O)[C@H](CC(C)C)NC(=O)[C@](C)(CC(C)C)NC(=O)[C@@H](NC(=O)C(C)(C)NC(=O)[C@@H](NC(=O)[C@H](CC(=O)O)NC(=O)[C@H](CO)NC(=O)[C@@H](NC(=O)[C@](C)(Cc1ccccc1F)NC(=O)[C@@H](NC(=O)CNC(=O)[C@H](CCC(=O)O)NC(=O)C(C)(C)NC(=O)[C@@H](N)Cc1ccc(O)cc1)[C@@H](C)O)[C@@H](C)O)C(C)C)[C@@H](C)CC)[C@@H](C)CC)C(=O)N[C@@H](CCCCNC(=O)COCCOCCNC(=O)COCCOCCNC(=O)CC[C@H](NC(=O)CCCCCCCCCCCCC(=O)O)C(=O)O)C(=O)NCC(=O)NCC(=O)N1CCC[C@H]1C(=O)N[C@@H](CO)C(=O)N[C@@H](CO)C(=O)NCC(=O)N[C@@H](C)C(=O)N1CCC[C@H]1C(=O)N1CCC[C@H]1C(=O)N1CCC[C@H]1C(=O)N[C@@H](CO)C(N)=O) [Example 390],3.85,89.3,> 9950,24.3,94.6,–,–,–,–,–,–,–,–,–,–
Y[Aib]EGT[αMePhe(2-F)]TSDV[Aib]I[αMeL]LD[Orn]K([AEEA-AEEA-γGlu-C14 diacid])AQ[Aib][Orn]FI[dE][αMeY]LIK([AEEA-AEEA-γGlu-C14 diacid])GGPSSGAPPPS-NH2 [Example 350],–,–,–,–,–,> 9950,0.202,95.9,0.0288,101,6.4,91.4,> 9950,5.82,–
